B1: FBXO39 (parent)
chain: RVFKARIYTNRYETNEEDKTLQEI

Variants of: B1
Assay: protein stability index of a GFP-peptide fusion (GPS, HEK-293T) (PSI 1-6); higher = more stable
Conditions: c terminus: a fixed tail appended
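Note: lentivirally expressed fusions sorted by FACS into six bins by GFP to DsRed ratio, PSI derived from sequencing read proportions per bin multiplied by bin number.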

Variant	protein stability index
RVFKARILTNRYETNEEDKTLQEI [Y8L]	3.21
RVFKARITTNRYETNEEDKTLQEI [Y8T]	2.93
RVFKARIFTNRYETNEEDKTLQEI [Y8F]	2.91
RVFKARIITNRYETNEEDKTLQEI [Y8I]	2.73
RVFKARIMTNRYETNEEDKTLQEI [Y8M]	2.77
RVFKARIETNRYETNEEDKTLQEI [Y8E]	3.93
RVFKARIWTNRYETNEEDKTLQEI [Y8W]	2.16
RVFKARIQTNRYETNEEDKTLQEI [Y8Q]	2.77
RVFKARIATNRYETNEEDKTLQEI [Y8A]	3.84
RVFKARICTNRYETNEEDKTLQEI [Y8C]	3.78
RVFKARIVTNRYETNEEDKTLQEI [Y8V]	3.08
RVFKARIKTNRYETNEEDKTLQEI [Y8K]	3.22
RVFKARISTNRYETNEEDKTLQEI [Y8S]	3.13
RVFKARIHTNRYETNEEDKTLQEI [Y8H]	3.27
RVFKARIRTNRYETNEEDKTLQEI [Y8R]	3.15
RVFKARIDTNRYETNEEDKTLQEI [Y8D]	4.51
RVFKARIGTNRYETNEEDKTLQEI [Y8G]	3.46
RVFKARINTNRYETNEEDKTLQEI [Y8N]	3.97
RVFKARIPTNRYETNEEDKTLQEI [Y8P]	2.45
RVFKARIYTNHYETNEEDKTLQEI [R11H]	2.34
RVFKARIYTNYYETNEEDKTLQEI [R11Y]	2.5
RVFKARIYTNLYETNEEDKTLQEI [R11L]	2.59
RVFKARIYTNGYETNEEDKTLQEI [R11G]	3.36
RVFKARIYTNWYETNEEDKTLQEI [R11W]	2.19

Variant	protein stability index
RVFKARIYTNKYETNEEDKTLQEI [R11K]	2.88
RVFKARIYTNNYETNEEDKTLQEI [R11N]	2.53
RVFKARIYTNAYETNEEDKTLQEI [R11A]	2.01
RVFKARIYTNEYETNEEDKTLQEI [R11E]	3.57
RVFKARIYTNCYETNEEDKTLQEI [R11C]	2.05
RVFKARIYTNDYETNEEDKTLQEI [R11D]	3.23
RVFKARIYTNPYETNEEDKTLQEI [R11P]	3.36
RVFKARIYTNSYETNEEDKTLQEI [R11S]	3.38
RVFKARIYTNMYETNEEDKTLQEI [R11M]	2.93
RVFKARIYTNQYETNEEDKTLQEI [R11Q]	3.2
RVFKARIYTNVYETNEEDKTLQEI [R11V]	2.18
RVFKARIYTNTYETNEEDKTLQEI [R11T]	3.75
RVFKARIYTNIYETNEEDKTLQEI [R11I]	2.46
RVFKQRIYTNRYETNEEDKTLQEI [A5Q]	2.7
RVFKSRIYTNRYETNEEDKTLQEI [A5S]	2.71
RVFKVRIYTNRYETNEEDKTLQEI [A5V]	1.67
RVFKFRIYTNRYETNEEDKTLQEI [A5F]	1.63
RVFKRRIYTNRYETNEEDKTLQEI [A5R]	3.49
RVFKHRIYTNRYETNEEDKTLQEI [A5H]	3.04
RVFKKRIYTNRYETNEEDKTLQEI [A5K]	2.69
RVFKERIYTNRYETNEEDKTLQEI [A5E]	4.48
RVFKGRIYTNRYETNEEDKTLQEI [A5G]	3.1
RVFKNRIYTNRYETNEEDKTLQEI [A5N]	3.95
RVFKPRIYTNRYETNEEDKTLQEI [A5P]	3.05

Variant	protein stability index
RVFKDRIYTNRYETNEEDKTLQEI [A5D]	4.39
RVFKLRIYTNRYETNEEDKTLQEI [A5L]	3.33
RVFKIRIYTNRYETNEEDKTLQEI [A5I]	2.2
RVFKMRIYTNRYETNEEDKTLQEI [A5M]	3.02
RVFKWRIYTNRYETNEEDKTLQEI [A5W]	2.34
RVFKCRIYTNRYETNEEDKTLQEI [A5C]	3.51
RVFKYRIYTNRYETNEEDKTLQEI [A5Y]	2.19
RVFKTRIYTNRYETNEEDKTLQEI [A5T]	2.1
RVFKARRYTNRYETNEEDKTLQEI [I7R]	2.43
RVFKARNYTNRYETNEEDKTLQEI [I7N]	2.7
RVFKARPYTNRYETNEEDKTLQEI [I7P]	4.12
RVFKARMYTNRYETNEEDKTLQEI [I7M]	2.67
RVFKARFYTNRYETNEEDKTLQEI [I7F]	2.67
RVFKARKYTNRYETNEEDKTLQEI [I7K]	2.24
RVFKARDYTNRYETNEEDKTLQEI [I7D]	4.26
RVFKARAYTNRYETNEEDKTLQEI [I7A]	3.14
RVFKARYYTNRYETNEEDKTLQEI [I7Y]	2.39
RVFKARLYTNRYETNEEDKTLQEI [I7L]	2.9
RVFKARHYTNRYETNEEDKTLQEI [I7H]	2.54
RVFKARGYTNRYETNEEDKTLQEI [I7G]	3.64
RVFKARWYTNRYETNEEDKTLQEI [I7W]	3.15
RVFKARTYTNRYETNEEDKTLQEI [I7T]	3
RVFKAREYTNRYETNEEDKTLQEI [I7E]	3.24
RVFKARQYTNRYETNEEDKTLQEI [I7Q]	2.74

Variant	protein stability index
RVFKARCYTNRYETNEEDKTLQEI [I7C]	2.74
RVFKARSYTNRYETNEEDKTLQEI [I7S]	3.39
RVFKARIYTNRIETNEEDKTLQEI [Y12I]	3.29
RVFKARIYTNRKETNEEDKTLQEI [Y12K]	2.99
RVFKARIYTNRGETNEEDKTLQEI [Y12G]	3.13
RVFKARIYTNRCETNEEDKTLQEI [Y12C]	2.07
RVFKARIYTNRAETNEEDKTLQEI [Y12A]	3.15
RVFKARIYTNRDETNEEDKTLQEI [Y12D]	3.89
RVFKARIYTNRHETNEEDKTLQEI [Y12H]	2.79
RVFKARIYTNREETNEEDKTLQEI [Y12E]	3.58
RVFKARIYTNRFETNEEDKTLQEI [Y12F]	3.33
RLFKARIYTNRYETNEEDKTLQEI [V2L]	3.19
RRFKARIYTNRYETNEEDKTLQEI [V2R]	4.24
RFFKARIYTNRYETNEEDKTLQEI [V2F]	3.18
RNFKARIYTNRYETNEEDKTLQEI [V2N]	4.09
RGFKARIYTNRYETNEEDKTLQEI [V2G]	3.69
RWFKARIYTNRYETNEEDKTLQEI [V2W]	2.45
RTFKARIYTNRYETNEEDKTLQEI [V2T]	2.89
RQFKARIYTNRYETNEEDKTLQEI [V2Q]	3.37
RIFKARIYTNRYETNEEDKTLQEI [V2I]	2.51
RMFKARIYTNRYETNEEDKTLQEI [V2M]	3.98
RHFKARIYTNRYETNEEDKTLQEI [V2H]	3.85

From the supplement of paper PMC10567573
